± gives the uncertainty stated by the source.
B1: Histone H1t, residues 44 to 112; numbered along this chain, P22492 (parent)
chain: VSKLITEALSVSQERVGMSLVALKKALAAAGYDVEKNNSRIKLSLKSLVNKGILVQTRGTGASGSFKLS

Variants of: B1
Assay: abundance fitness (aPCA) (normalised: wild type 0, dead -1); higher = more abundant; growth selection in yeast, the domain comes from the species named
Conditions: Homo sapiens
In the case of VSKLITEALSVSQERVGMSLVALKKALAAAGYDVEKNNSRIKLSLKSLVNKGPLVQTRGTGASGSFKLS [I53P], the abundance fitness is reported as -0.202 ± 0.041.
For VSKLITEALSVSQERVGMSLVALKKALAAAGYDVEKNNSRIKLSLKSLVNKGQLVQTRGTGASGSFKLS [I53Q], the abundance fitness was 0.033 ± 0.046.
With VSKLITEALSVSQERVGMSLVALKKALAAAGYDVEKNNSRIKLSLKSLVNKGRLVQTRGTGASGSFKLS [I53R] the abundance fitness was -0.099 ± 0.068.
In the case of VSKLITEALSVSQERVGMSLVALKKALAAAGYDVEKNNSRIKLSLKSLVNKGSLVQTRGTGASGSFKLS [I53S], the abundance fitness is reported as -0.081 ± 0.038.
For VSKLITEALSVSQERVGMSLVALKKALAAAGYDVEKNNSRIKLSLKSLVNKGTLVQTRGTGASGSFKLS [I53T], the abundance fitness was -0.082 ± 0.058.
Work on VSKLITEALSVSQERVGMSLVALKKALAAAGYDVEKNNSRIKLSLKSLVNKGVLVQTRGTGASGSFKLS [I53V] yielded an abundance fitness of -0.025 ± 0.045.
Work on VSKLITEALSVSQERVGMSLVALKKALAAAGYDVEKNNSRIKLSLKSLVNKGWLVQTRGTGASGSFKLS [I53W] yielded an abundance fitness of -0.062 ± 0.075.
VSKLITEALSVSQERVGMSLVALKKALAAAGYDVEKNNSRIKLSLKSLVNKGYLVQTRGTGASGSFKLS [I53Y] showed an abundance fitness of -0.184 ± 0.056.
VSKLITEALSVSQERVGMSLVALKKALAAAGYDVEKNNSRIKLSLKSLVNKGIAVQTRGTGASGSFKLS [L54A] showed an abundance fitness of -0.3 ± 0.25.
Variant VSKLITEALSVSQERVGMSLVALKKALAAAGYDVEKNNSRIKLSLKSLVNKGIFVQTRGTGASGSFKLS [L54F] has an abundance fitness of -0.036 ± 0.049.
In the case of VSKLITEALSVSQERVGMSLVALKKALAAAGYDVEKNNSRIKLSLKSLVNKGIHVQTRGTGASGSFKLS [L54H], the abundance fitness is reported as -0.325 ± 0.12.
With VSKLITEALSVSQERVGMSLVALKKALAAAGYDVEKNNSRIKLSLKSLVNKGIIVQTRGTGASGSFKLS [L54I] the abundance fitness was 0.197 ± 0.094.
With VSKLITEALSVSQERVGMSLVALKKALAAAGYDVEKNNSRIKLSLKSLVNKGIKVQTRGTGASGSFKLS [L54K] the abundance fitness was -0.087 ± 0.14.
In the case of VSKLITEALSVSQERVGMSLVALKKALAAAGYDVEKNNSRIKLSLKSLVNKGIMVQTRGTGASGSFKLS [L54M], the abundance fitness is reported as 0.062 ± 0.16.
For VSKLITEALSVSQERVGMSLVALKKALAAAGYDVEKNNSRIKLSLKSLVNKGINVQTRGTGASGSFKLS [L54N], the abundance fitness was -0.249 ± 0.095.
VSKLITEALSVSQERVGMSLVALKKALAAAGYDVEKNNSRIKLSLKSLVNKGIPVQTRGTGASGSFKLS [L54P] showed an abundance fitness of -0.083 ± 0.08.
Work on VSKLITEALSVSQERVGMSLVALKKALAAAGYDVEKNNSRIKLSLKSLVNKGIQVQTRGTGASGSFKLS [L54Q] yielded an abundance fitness of 0.092 ± 0.16.
In the case of VSKLITEALSVSQERVGMSLVALKKALAAAGYDVEKNNSRIKLSLKSLVNKGIRVQTRGTGASGSFKLS [L54R], the abundance fitness is reported as 0.168 ± 0.25.
Variant VSKLITEALSVSQERVGMSLVALKKALAAAGYDVEKNNSRIKLSLKSLVNKGISVQTRGTGASGSFKLS [L54S] has an abundance fitness of -0.047 ± 0.11.
Variant VSKLITEALSVSQERVGMSLVALKKALAAAGYDVEKNNSRIKLSLKSLVNKGITVQTRGTGASGSFKLS [L54T] has an abundance fitness of -0.246 ± 0.1.
For VSKLITEALSVSQERVGMSLVALKKALAAAGYDVEKNNSRIKLSLKSLVNKGIVVQTRGTGASGSFKLS [L54V], the abundance fitness was 0.158 ± 0.14.
Work on VSKLITEALSVSQERVGMSLVALKKALAAAGYDVEKNNSRIKLSLKSLVNKGIYVQTRGTGASGSFKLS [L54Y] yielded an abundance fitness of -0.311 ± 0.071.
For VSKLITEALSVSQERVGMSLVALKKALAAAGYDVEKNNSRIKLSLKSLVNKGILAQTRGTGASGSFKLS [V55A], the abundance fitness was -0.106 ± 0.064.
Work on VSKLITEALSVSQERVGMSLVALKKALAAAGYDVEKNNSRIKLSLKSLVNKGILCQTRGTGASGSFKLS [V55C] yielded an abundance fitness of -0.077 ± 0.1.
Variant VSKLITEALSVSQERVGMSLVALKKALAAAGYDVEKNNSRIKLSLKSLVNKGILDQTRGTGASGSFKLS [V55D] has an abundance fitness of -0.291 ± 0.11.
Variant VSKLITEALSVSQERVGMSLVALKKALAAAGYDVEKNNSRIKLSLKSLVNKGILEQTRGTGASGSFKLS [V55E] has an abundance fitness of 0.027 ± 0.096.
VSKLITEALSVSQERVGMSLVALKKALAAAGYDVEKNNSRIKLSLKSLVNKGILFQTRGTGASGSFKLS [V55F] showed an abundance fitness of -0.114 ± 0.036.
VSKLITEALSVSQERVGMSLVALKKALAAAGYDVEKNNSRIKLSLKSLVNKGILGQTRGTGASGSFKLS [V55G] showed an abundance fitness of 0.056 ± 0.069.
Work on VSKLITEALSVSQERVGMSLVALKKALAAAGYDVEKNNSRIKLSLKSLVNKGILHQTRGTGASGSFKLS [V55H] yielded an abundance fitness of -0.08 ± 0.1.
Variant VSKLITEALSVSQERVGMSLVALKKALAAAGYDVEKNNSRIKLSLKSLVNKGILIQTRGTGASGSFKLS [V55I] has an abundance fitness of -0.079 ± 0.049.
Work on VSKLITEALSVSQERVGMSLVALKKALAAAGYDVEKNNSRIKLSLKSLVNKGILLQTRGTGASGSFKLS [V55L] yielded an abundance fitness of -0.056 ± 0.028.
For VSKLITEALSVSQERVGMSLVALKKALAAAGYDVEKNNSRIKLSLKSLVNKGILMQTRGTGASGSFKLS [V55M], the abundance fitness was 0.002 ± 0.035.
With VSKLITEALSVSQERVGMSLVALKKALAAAGYDVEKNNSRIKLSLKSLVNKGILNQTRGTGASGSFKLS [V55N] the abundance fitness was -0.102 ± 0.079.
Work on VSKLITEALSVSQERVGMSLVALKKALAAAGYDVEKNNSRIKLSLKSLVNKGILPQTRGTGASGSFKLS [V55P] yielded an abundance fitness of -0.163 ± 0.062.
VSKLITEALSVSQERVGMSLVALKKALAAAGYDVEKNNSRIKLSLKSLVNKGILQQTRGTGASGSFKLS [V55Q] showed an abundance fitness of -0.127 ± 0.056.
VSKLITEALSVSQERVGMSLVALKKALAAAGYDVEKNNSRIKLSLKSLVNKGILSQTRGTGASGSFKLS [V55S] showed an abundance fitness of 0.071 ± 0.038.
With VSKLITEALSVSQERVGMSLVALKKALAAAGYDVEKNNSRIKLSLKSLVNKGILTQTRGTGASGSFKLS [V55T] the abundance fitness was 0.062 ± 0.053.
VSKLITEALSVSQERVGMSLVALKKALAAAGYDVEKNNSRIKLSLKSLVNKGILWQTRGTGASGSFKLS [V55W] showed an abundance fitness of -0.297 ± 0.063.
In the case of VSKLITEALSVSQERVGMSLVALKKALAAAGYDVEKNNSRIKLSLKSLVNKGILYQTRGTGASGSFKLS [V55Y], the abundance fitness is reported as -0.15 ± 0.059.
